In data set [1] the target is secreted form of human neprilysin, mutant F563L (human). Briefly: enzyme kinetics, competitive (alternate substrate) inhibition of Glut-Ala-Ala-Phe-MNA hydrolysis, Dixon plot; insulin B chain varied from 1 to 40 µM against hydrolysis of the fluorogenic substrate Glut-Ala-Ala-Phe-MNA by NEP or mutant; Ki from ID50 = Ki(1+[S]/Km); 37°C, 20 mM MES buffer, pH 6.5.
In data set [2] the target is secreted form of human neprilysin, mutant F563I (human). Described as above.
Data set [3] addresses secreted form of human neprilysin (shNEP), wild type (human) (UniProt P08473). The data set is described as above.
For data set [4], the target named is secreted form of human neprilysin, mutant F563V (human). The data set is described as above.
Data set [5] has as its target secreted form of human neprilysin, mutant F563M (human). The data set is described as above.
The test system of data set [6] is insulin B chain. Briefly: Dual substrate assay: insulin B chain hydrolysis in presence of leu-ENK. The format is biochemical. As to conditions: 15 µM insulin B chain and 64 µM leu-ENK together, 37°C, 20 mM MES buffer, pH 6.5. How it is done:
(§1) The rate of cleavage of a substrate mixture is determined by both the kcat for that substrate as well by the affinity for the substrate. […] This is expected, given that each peptide acts as a competitive inhibitor of the other. […] That is the ratio for leu-ENK/insulin B chain cleavage is 3 for NEP^S546E compared to 6 for wild-type NEP.
(§2) Cleavage of physiological peptides was measured via reverse phase high performance liquid chromatography (HPLC) following incubation of the purified NEP or its mutants with 15 µM insulin B chain (Sigma Aldrich), 24 µM Aß1–40 (Anaspec), or 64 µM leu-ENK (Sigma) in 100 µL of 20 mM MES, pH 6.5, at 37°C. Reactions were run in triplicate. HPLC was carried out in a Vydac C4 column using a linear gradient from 0.1% trifluoroacetic acid (TFA) in 95% water, 5% acetonitrile to 0.1% TFA in 50% acetonitrile/water at a flow rate of 1 mL/min. Peptides and hydrolysis products were detected at 214 nm and quantified by measuring peak areas. Peptides obtained from HPLC were analyzed on an Applied Biosystems 4800 MALDI TOF/TOF Proteomics Analyzer at the University of Kentucky Proteomics core. This facility is supported in part by grant P20RR020171 from the NIH/NCRR.

Data set [7] deals with insulin B chain. Nature of the data set: Insulin B chain as alternate substrate (competitive) inhibitor of Glut-Ala-Ala-Phe-MNA hydrolysis (Dixon plot). Format: biochemical. The conditions noted are these: insulin B chain 1 to 40 µM as competitive inhibitor of Glut-Ala-Ala-Phe-MNA hydrolysis by the enzyme form, 37°C, 20 mM MES, pH 6.5, ID50 converted to Ki. How it is done:
(§3) Kinetic constants for NEP and its mutants were obtained using the assay conditions noted above, but with Glut-Ala-Ala-Phe-MNA varied from 20 to 500 µM. Typically 12 data points were obtained. The data were fit to the Michaelis-Menten equation using Prism4 software. The Ki for insulin B chain was obtained by measuring the rate of Glut-Ala-Ala-Phe-MNA hydrolysis in the presence of varying concentrations of insulin B chain from 1 to 40 µM. Data were fit to a Dixon plot (1/rate versus [insulin B chain]) using Prism4 software and the ID50 obtained as the –x intercept, where ID50 corresponds to the concentration of insulin producing 50% inhibition. The actual Ki was obtained from the equation: ID50 = Ki (1+ [Glut-Ala-Ala-Phe-MNA]/KmGlut-Ala-Ala-Phe-MNA), [33].

Data set [8] relates to insulin B chain. Briefly: Time course of product peak accumulation from insulin B chain. The format is biochemical. The conditions noted are these: 15 µM insulin B chain, 37°C, 20 mM MES, pH 6.5; 0-180 min, HPLC peak area 214 nm, linear phase.
Text: As a representative of the NEP^F563 and NEP^S546 mutants, we compared the cleavage profile of NEP^F563L and NEP^S546E to that of NEP using time course experiments, Figure 2 . By adjusting the amount of NEP mutant used, the rate of hydrolysis of insulin B chain by all NEP forms was virtually identical. […] Since rates were based on peak areas measured at 214 nm, which in turn is dependent on both the number of peptide bonds and the number of aromatic residues within a given peptide, only the observed rates of change for a particular peptide product can be compared between enzyme forms. A comparison of the rate of change of different peaks within the same enzyme form or between enzyme forms is not valid under our conditions of analysis.
as §2

Data set [9] concerns leu-ENK and insulin B chain. Nature of the data set: Dual substrate assay: substrate preference leu-ENK versus insulin B chain. The format is biochemical. The conditions noted are these: ratio of rates, 15 µM insulin B chain and 64 µM leu-ENK together. How it is done: as §1, §2
Data set [10] relates to Aß. The conditions noted are these: transgenic mice; cited from earlier work. The text has this: Because of its multiple targets, NEP has been the focus of numerous studies attempting to modulate its activity for therapeutic purposes. One such target is the use of NEP to reduce Aß peptide levels in Alzheimer's disease, since the oligomerization of Aß has been linked to the etiology of this disease. […] In yet another application inhibitors of NEP were developed to block its “enkephalinase” activity to increase the concentra ...

For data set [11], the system named is Aß1–40. Nature of the data set: Time course of product peak accumulation from Aß1–40. Format: biochemical. As to conditions: 24 µM Aß1–40, 37°C, 20 mM MES, pH 6.5; 0-360 min, HPLC peak area, linear phase. The procedure: Similar to the analysis conducted with insulin B chain, the linear rate of product accumulation was determined for each peak and normalized to the amount of protein in the reaction, Table 7 . Unlike the hydrolysis of insulin B chain, the hydrolysis of Aß1–40, even at the earliest time points, produced products resulting from multiple cleavage events. Out of the 12 identified product peaks, only 3 could be produced by a single cleavage. Rates for all cleavages were calculated and are given in Figure 4, B–D , but only the three putative primary cleavage sites can be compared.
as §2

For data set [12], the system named is Aß1–40. Briefly: Rate of Aß1–40 hydrolysis (HPLC). Format: biochemical. As to conditions: 24 µM Aß1–40, 37°C, 20 mM MES buffer, pH 6.5; disappearance of substrate by HPLC; at least triplicate. How it is done:
as §2
(§4) Statistical analysis comparing wild-type NEP and its mutants was performed with Prism 4 software using a two-tailed paired t-test with a 95% confidence interval.

A short description of data set [13]: Hydrolysis of synthetic substrate Glut-Ala-Ala-Phe-MNA by NEP and mutants (fluorogenic). The format is biochemical. The conditions noted are these: 37°C, 20 mM MES buffer, pH 6.5. The procedure:
Reactions of 400 µl contained 100 µM Glut-Ala-Ala-Phe-MNA, 1 µg of aminopeptidase and 15 to 100 ng of NEP or mutant NEP depending on their activity in 20 mM MES buffer, pH 6.5. Activity was monitored with a Spectra Max Gemini XS plate reader using an excitation wavelength of 340 nm and an emission wavelength of 425 nm.
as §3

The subject of data set [14] is insulin B chain. Nature of the data set: Rate of insulin B chain hydrolysis (HPLC). As to conditions: 15 µM insulin B chain, 37°C, 20 mM MES buffer, pH 6.5; disappearance of substrate by HPLC; at least triplicate. The format is biochemical. How it is done: as §2, §4
In data set [15] the test system is leu-ENK. Nature of the data set: Dual substrate assay: leu-ENK hydrolysis in presence of insulin B chain. The format is biochemical. The conditions noted are these: 15 µM insulin B chain and 64 µM leu-ENK together, 37°C, 20 mM MES buffer, pH 6.5. How it is done:
as §1, §2

Data set [16] deals with leu-ENK. Nature of the data set: Rate of leu-ENK hydrolysis (HPLC). The format is biochemical. As to conditions: 64 µM leu-ENK, 37°C, 20 mM MES buffer, pH 6.5; disappearance of substrate by HPLC; at least triplicate. The procedure: as §2, §4

Where “and” joins values, the source holds several entries; their conditions need not be identical. Identical values can stand only once.

What is called Ki is the equilibrium dissociation constant of an inhibitor or competing ligand from its target. By Km is commonly meant the substrate concentration at which the rate is half of its maximum.

Take “insulin B chain (from UniProt P01317 25-54) (peptide)”: the Ki in data set [1] came to 1500 nM; in [2], 2500 nM; in data set [3] it was 1900 nM; in data set [4] it was 1000 nM; in [5], 1200 nM.

B1: NEP: secreted form of human NEP (shNEP) expressed as a C-terminal hexahistidine fusion protein (protein, UniProt P08473 52-750, looked up)
extracellular domain: YDDGICKSSDCIKSAARLIQNMDATTEPCTDFFKYACGGWLKRNVIPETSSRYGNFDILRDELEVVLKDVLQEPKTEDIVAVQKAKALYRSCINESAIDSRGGEPLLKLLPDIYGWPVATENWEQKYGASWTAEKAIAQLNSKYGKKVLINLFVGTDDKNSVNHVIHIDQPRLGLPSRDYYECTGIYKEACTAYVDFMISVARLIRQEERLPIDENQLALEMNKVMELEKEIANATAKPEDRNDPMLLYNKMTLAQIQNNFSLEINGKPFSWLNFTNEIMSTVNISITNEEDVVVYAPEYLTKLKPILTKYSARDLQNLMSWRFIMDLVSSLSRTYKESRNAFRKALYGTTSETATWRRCANYVNGNMENAVGRLYVEAAFAGESKHVVEDLIAQIREVFIQTLDDLTWMDAETKKRAEEKALAIKERIGYPDDIVSNDNKLNNEYLELNYKEDEYFENIIQNLKFSQSKQLKKLREKVDKDEWISGAAVVNAFYSSGRNQIVFPAGILQPPFFSAQQSNSLNYGGIGMVIGHEITHGFDDNGRNFNKDGDLVDWWTQQSASNFKEQSQCMVYQYGNFSWDLAGGQHLNGINTLGENIADNGGLGQAYRAYQNYIKKNGEEKLLPGLDLNHKQLFFLNFAQVWCGTYRPEYAVNSIKTDVHSPGNFRIIGTLQNSAEFSEAFHCRKNSYMNPEKKCRVW
modifications: extracellular domain C-terminal His6 tag
notes: secreted form of human NEP (shNEP) expressed as a C-terminal hexahistidine fusion protein
For B1, in data set [6], the “Insulin B Chain hydrolysis rate, dual substrate assay” value worked out at 0.20 ± 0.04 pmol/min/ng. Besides, in data set [6] (numbers in parenthesis), the “Insulin B Chain hydrolysis, activity relative to the uninhibited value” is listed as 0.23. Affinity in data set [7] was put at a Ki of 1900 ± 200 nM. Besides, in [8], the “Rate of accumulation of peak 1–5 (single cleavage H^5-L^6)” value is recorded as 59 Δarea/min/ng, the “Rate of accumulation of peak 1–10 (single cleavage H^10-L^11)” value is 163 Δarea/min/ng, the “Rate of accumulation of peak 1–11 (single cleavage L^11-V^12)” value is reported as 88 Δarea/min/ng and the “Rate of accumulation of peak 1–14 (single cleavage A^14-L^15)” value is 167 Δarea/min/ng. In [8], the “Rate of accumulation of peak 1–16 (single cleavage Y^16-L^17)” value is given as 31 Δarea/min/ng; the “Rate of accumulation of peak 15–23 (two cleavages A^14-L^15, G^23-F^24)” value is 23 Δarea/min/ng; the “Rate of accumulation of peak 15–30 (single cleavage A^14-L^15)” value is 135 Δarea/min/ng; the “Rate of accumulation of peak 17–24 (two cleavages Y^16-L^17, F^24-F^25)” value was 33 Δarea/min/ng. In addition, in data set [8], the “Rate of accumulation of peak 17–30 (single cleavage Y^16-L^17)” value is given as 171 Δarea/min/ng and the “Rate of accumulation of peak 24–30 (single cleavage G^23-F^24)” value is given as 268 Δarea/min/ng. Also, the “Ratio leu-ENK insulin B chain” value in data set [9] was 6 and 5.8. Further, in data set [10], the “Effect of NEP expression on cognitive deficits typically attributed to AD” value was “ameliorates cognitive deficits” and the “Effect of NEP expression on level of Aß” value is “decreases the level of Aß”. Also, in data set [11], the “Accumulation rate of peak Aß 1–9 (single cleavage G^9-Y^10)” value is on record as 7 Δarea/min/ng; the “Accumulation rate of peak Aß 1–16 (single cleavage K^16-L^17)” value is 22 Δarea/min/ng; the “Accumulation rate of peak Aß 1–17 (single cleavage L^17-V^18)” value is listed as 75 Δarea/min/ng; the “Accumulation rate of peak Aß 4–9 (dual cleavages A^3-F^4, G^9-Y^10)” value is given as 10 Δarea/min/ng. Also, in [11], the “Accumulation rate of peak Aß 4–16 (dual cleavages A^3-F^4, K^16-L^17)” value is 7 Δarea/min/ng; the “Accumulation rate of peak Aß 4–17 (dual cleavages A^3-F^4, L^17-V^18)” value was 9 Δarea/min/ng; the “Accumulation rate of peak Aß 10–16 (dual cleavages G^9-Y^10, K^16-L^17)” value is 4 Δarea/min/ng; the “Accumulation rate of peak Aß 10–17 (dual cleavages G^9-Y^10, L^17-V^18)” value is given as 18 Δarea/min/ng. For the same molecule, in [11], the “Accumulation rate of peak Aß 12–17 (dual cleavages E^11-V^12, L^17-V^18)” value was 3 Δarea/min/ng; the “Accumulation rate of peak Aß 20–28 (dual cleavages F^19-F^20, K^28-G^29)” value was 11 Δarea/min/ng; the “Accumulation rate of peak Aß 20–29 (dual cleavages F^19-F^20, G^29-A^30)” value was 16 Δarea/min/ng; the “Accumulation rate of peak Aß 20–30 (dual cleavages F^19-F^20, A^30-I^31)” value is 34 Δarea/min/ng. Besides, in [12], the “Rate of hydrolysis of Aß1–40” value turned out to be 198 ± 12 fmol/min/ng. For the same molecule, the “Specific Activity (Glut-Ala-Ala-Phe-MNA cleavage)” value in data set [13] (100 µM Glut-Ala-Ala-Phe-MNA, fluorescence ex 340 nm, em 425 nm) came to 45.9 ± 2.5 pmol/min/ng. The Km in data set [13] (Glut-Ala-Ala-Phe-MNA 20 to 500 µM, Michaelis-Menten fit) stood at 51 ± 11 µM. In data set [14], the “Rate of hydrolysis of Insulin B Chain” value came out at 0.86 ± 0.13 pmol/min/ng. Moreover, the “leu-ENK hydrolysis rate, dual substrate assay” value in [15] was determined as 1.16 ± 0.06 pmol/min/ng. Further, the “leu-ENK hydrolysis, activity relative to the uninhibited value” in data set [15] (numbers in parenthesis) was determined as 0.61. The “Rate of hydrolysis of leu-ENK” value in data set [16] came out at 1.90 ± 0.23 pmol/min/ng.

The values above are taken from paper PMC3285688, “Active Site Mutations Change the Cleavage Specificity of Neprilysin” (PLoS ONE, 2012).
